The target in this test is mTOR (human, UniProt P42345 1-2549). Nature of the test: IP-Western, BE3 or SKGT4 cells.

B1: Gli3 (other)
chain: MEAQSHSSTTTEKKKVENSIVKCSTRTDVSEKAVASSTTSNEDESPGQTYHRERRNAITMQPQNVQGLSKVSEEPSTSSDERASLIKKEIHGSLPHVAEPSVPYRGTVFAMDPRNGYMEPHYHPPHLFPAFHPPVPIDARHHEGRYHYDPSPIPPLHMTSALSSSPTYPDLPFIRISPHRNPTAASESPFSPPHPYINPYMDYIRSLHSSPSLSMISATRGLSPTDAPHAGVSPAEYYHQMALLTGQRSPYADIIPSAATAGTGAIHMEYLHAMDSTRFSSPRLSARPSRKRTLSISPLSDHSFDLQTMIRTSPNSLVTILNNSRSSSSASGSYGHLSASAISPALSFTYSSAPVSLHMHQQILSRQQSLGSAFGHSPPLIHPAPTFPTQRPIPGIPTVLNPVQVSSGPSESSQNKPTSESAVSSTGDPMHNKRSKIKPDEDLPSPGARGQQEQPEGTTLVKEEGDKDESKQEPEVIYETNCHWEGCAREFDTQEQLVHHINNDHIHGEKKEFVCRWLDCSREQKPFKAQYMLVVHMRRHTGEKPHKCTFEGCTKAYSRLENLKTHLRSHTGEKPYVCEHEGCNKAFSNASDRAKHQNRTHSNEKPYVCKIPGCTKRYTDPSSLRKHVKTVHGPEAHVTKKQRGDIHPRPPPPRDSGSHSQSRSPGRPTQGALGEQQDLSNTTSKREECLQVKTVKAEKPMTSQPSPGGQSSCSSQQSPISNYSNSGLELPLTDGGSIGDLSAIDETPIMDSTISTATTALALQARRNPAGTKWMEHVKLERLKQVNGMFPRLNPILPPKAPAVSPLIGNGTQSNNTCSLGGPMTLLPGRSDLSGVDVTMLNMLNRRDSSASTISSAYLSSRRSSGISPCFSSRRSSEASQAEGRPQNVSVADSYDPISTDASRRSSEASQSDGLPSLLSLTPAQQYRLKAKYAAATGGPPPTPLPNMERMSLKTRLALLGDALEPGVALPPVHAPRRCSDGGAHGYGRRHLQPHDAPGHGVRRASDPVRTGSEGLALPRVPRFSSLSSCNPPAMATSAEKRSLVLQNYTRPEGGQSRNFHSSPCPPSITENVTLESLTMDADANLNDEDFLPDDVVQYLNSQNQAGYEQHFPSALPDDSKVPHGPGDFDAPGLPDSHAGQQFHALEQPCPEGSKTDLPIQWNEVSSGSADLSSSKLKCGPRPAVPQTRAFGFCNGMVVHPQNPLRSGPAGGYQTLGENSNPYGGPEHLMLHNSPGSGTSGNAFHEQPCKAPQYGNCLNRQPVAPGALDGACGAGIQASKLKSTPMQGSGGQLNFGLPVAPNESAGSMVNGMQNQDPVGQGYLAHQLLGDSMQHPGAGRPGQQMLGQISATSHINIYQGPESCLPGAHGMGSQPSSLAVVRGYQPCASFGGSRRQAMPRDSLALQSGQLSDTSQTCRVNGIKMEMKGQPHPLCSNLQNYSGQFYDQTVGFSQQDTKAGSFSISDASCLLQGTSAKNSELLSPGANQVTSTVDSLDSHDLEGVQIDFDAIIDDGDHSSLMSGALSPSIIQNLSHSSSRLTTPRASLPFPALSMSTTNMAIGDMSSLLTSLAEESKFLAVMQ
Regarding B1, the binding result is given as “no binding”.

B2: Gli2 (other)
chain: METSASATASEKQEAKSGILEAAGFPDPGKKASPLVVAAAAAAAVAAQGVPQHLLPPFHAPLPIDMRHQEGRYHYEPHSVHGVHGPPALSGSPVISDISLIRLSPHPAGPGESPFNAPHPYVNPHMEHYLRSVHSSPTLSMISAARGLSPADVAQEHLKERGLFGLPAPGTTPSDYYHQMTLVAGHPAPYGDLLMQSGGAASAPHLHDYLNPVDVSRFSSPRVTPRLSRKRALSISPLSDASLDLQRMIRTSPNSLVAYINNSRSSSAASGSYGHLSAGALSPAFTFPHPINPVAYQQILSQQRGLGSAFGHTPPLIQPSPTFLAQQPMALTSINATPTQLSSSSNCLSDTNQNKQSSESAVSSTVNPVAIHKRSKVKTEPEGLRPASPLALTQGQVSGHGSCGCALPLSQEQLADLKEDLDRDDCKQEAEVVIYETNCHWEDCTKEYDTQEQLVHHINNEHIHGEKKEFVCRWQACTREQKPFKAQYMLVVHMRRHTGEKPHKCTFEGCSKAYSRLENLKTHLRSHTGEKPYVCEHEGCNKAFSNASDRAKHQNRTHSNEKPYICKIPGCTKRYTDPSSLRKHVKTVHGPDAHVTKKQRNDVHLRTPLLKENGDSEAGTEPGGPESTEASSTSQAVEDCLHVRAIKTESSGLCQSSPGAQSSCSSEPSPLGSAPNNDSGVEMPGTGPGSLGDLTALDDTPPGADTSALAAPSAGGLQLRKHMTTMHRFEQLKKEKLKSLKDSCSWAGPTPHTRNTKLPPLPGSGSILENFSGSGGGGPAGLLPNPRLSELSASEVTMLSQLQERRDSSTSTVSSAYTVSRRSSGISPYFSSRRSSEASPLGAGRPHNASSADSYDPISTDASRRSSEASQCSGGSGLLNLTPAQQYSLRAKYAAATGGPPPTPLPGLERMSLRTRLALLDAPERTLPAGCPRPLGPRRGSDGPTYGHGHAGAAPAFPHEAPGGGARRASDPVRRPDALSLPRVQRFHSTHNVNPGPLPPCADRRGLRLQSHPSTDGGLARGAYSPRPPSISENVAMEAVAAGVDGAGPEADLGLPEDDLVLPDDVVQYIKAHASGALDEGTGQVYPTESTGFSDNPRLPSPGLHGQRRMVAADSNVGPSAPMLGGCQLGFGAPSSLNKNNMPVQWNEVSSGTVDALASQVKPPPFPQGNLAVVQQKPAFGQYPGYSPQGLQASPGGLDSTQPHLQPRSGAPSQGIPRVNYMQQLRQPVAGSQCPGMTTTMSPHACYGQVHPQLSPSTISGALNQFPQSCSNMPAKPGHLGHPQQTEVAPDPTTMGNRHRELGVPDSALAGVPPPHPVQSYPQQSHHLAASMSQEGYHQVPSLLPARQPGFMEPQTGPMGVATAGFGLVQPRPPLEPSPTGRHRGVRAVQQQLAYARATGHAMAAMPSSQETAEAVPKGAMGNMGSVPPQPPPQDAGGAPDHSMLYYYGQIHMYEQDGGLENLGSCQVMRSQPPQPQACQDSIQPQPLPSPGVNQVSSTVDSQLLEAPQIDFDAIMDDGDHSSLFSGALSPSLLHSLSQNSSRLTTPRNSLTLPSIPAGISNMAVGDMSSMLTSLAEESKFLNMMT
Consider B2, for which the binding result was “no binding”.

These data come from US20150017651A1 (University of Texas, published 2015).
